In the assay the target is T1, peptide … (HIV-1).
T1 construct: also called wt peptide
The assay is described as follows: Pepscan ELISA.

B1: HGN194 (antibody, V domains shown)
VH: EVQLVQSGAEVKKPGESLKISCYGSGYNFNDYWIGWVRQMPGKGLEWMGMIYPDDSDTKYSAAFEGQVTLSADKSISTAYLQWTSLRASDTATYYCARLDGDYADFDSWGQGTLVTVSS
VL: QSVLTQPPSVSAAPGQKVTISCSGTNSNLGDKFVSWYQQLPGTAPRLLIYDNDKRPSGIPDRFSGSKSGASATLAITGLQTGDEADYYCGTWDNSLSALFGGGTKLTVL
notes: also called HGN194.12
With B1, the binding result is given as “binds”.

Values taken from patent US20110212106A1 (INSTITUTE FOR RESEARCH IN BIOSCIENCE, published 2011).
